This passage reports Kd results from patent publication US20250059285A1.

The test deals with cynomolgus Gal10-His (WGS isoform) (cynomolgus). Briefly: SPR Biacore 3000 on cynomolgus Gal10 (WGS isoform). (SPR reads the build-up and loss of mass on a sensor chip optically.)

B1: g7B07-mIgG1 (antibody, V domains shown)
VH: EVQLLESGGGLVQPGGSLRLSCAASGFTFRSYDMSWVRQAPGKGLEWVSAIKNGGGITYYADSVKGRFTISRDNSKNTLYLQMNSLRAEDTAVYYCATTHGIGTLGFGSWGQGTLVTVSS
VL: SYELTQPLSVSVALGQTARITCDGNNIGSKSAQWYQQKPGQAPVLVIYADEYRPEGIPERFSGSNSGNTATLTISRAQAGDEADYYCQVWDGSAAVFGGGTQLTVL
In general, Kd refers to a measure of binding affinity in units of concentration. A lower Kd goes with higher affinity. In turn, B1 had an equilibrium dissociation constant (Kd) of 1.5 nM.
